Experimental data reported in patent US20230348614A1 (VISTERRA, published 2023).
Substitutions are numbered along the chain they refer to.

Experiments:
[1] = biological target: T1, E111A (Homo sapiens, UniProt P18827); assay: alanine scan: flow cytometry on HEK-293T cells expressing the mutant clone, 4320 Fab 0.50 ug/mL, normalised to WT CD138; Range %WT Binding 8; Normalized 4320 vs. BB4 10.4
T1 construct: clone of the alanine scanning library on HEK-293T cells; m17 with one substitution; also called CD138 E111A
T1 sequence (CD138 (SDC1), full length, point mutant, looked up): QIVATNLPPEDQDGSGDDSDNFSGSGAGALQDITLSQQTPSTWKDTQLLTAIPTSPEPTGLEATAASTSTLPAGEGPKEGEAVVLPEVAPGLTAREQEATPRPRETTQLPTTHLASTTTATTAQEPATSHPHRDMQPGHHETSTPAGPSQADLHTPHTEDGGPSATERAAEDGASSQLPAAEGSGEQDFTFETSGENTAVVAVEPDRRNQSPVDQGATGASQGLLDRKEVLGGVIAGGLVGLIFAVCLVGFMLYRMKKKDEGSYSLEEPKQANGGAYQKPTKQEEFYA
Procedure: (§1) Serial dilutions of each MAb were tested for immunoreactivity against cells expressing target protein (WT) or vector alone. Validation of target expression and optimization of detection and binding of anti-CD138 antibodies both by flow cytometry was completed in replicate (N=4). The optimal screening concentration for each MAb was determined based on the raw signal values and signal-to-background calculations specifically optimized for each test article. Optimized parameters included the use of 10% goat serum as blocking reagent. Primary antibody staining was for 60 minutes at 25° C. Wash buffer include phosphate buffered saline (divalent metal ion free), pH 7.4. […] Secondary antibodies were diluted 1:400 and incubated for 30 minutes at 25° C.
(§2) Library screens of very-high-affinity mAbs can fail to yield critical residues for antibody binding due to deficiencies of such an assay to detect and differentiate critical vs. less critical binding based on affinity and quantification of cell binding. One common approach in the literature is the use of monovalent antibody derived fragments such as Fab usually weakens binding sufficiently to allow identification of critical residues for binding. […] Binding of each test Ab to each mutant clone in the alanine scanning library was determined, in duplicate, and likewise evaluated by flow cytometry.

[2] = biological target: T2, L107A (Homo sapiens, UniProt P18827); assay: alanine scan: flow cytometry on HEK-293T cells expressing the mutant clone, 4320 Fab 0.50 ug/mL, normalised to WT CD138; Range %WT Binding 13; Normalized 4320 vs. BB4 16.8
T2 construct: clone of the alanine scanning library on HEK-293T cells; m17 with one substitution; also called CD138 L107A
T2 sequence (CD138 (SDC1), full length, point mutant, looked up): T1 sequence (CD138 (SDC1), full length, point mutant, looked up) with L85A, A89E
Procedure: as §1, §2

B1: Fab fragment of mAb 4320 (Fab, V domains shown)
VH: QVQLVQSGAEVKKPGASVKVSCKASGYSFSSYYMHWVRQAPGQGLEWMGTIHPSDSTTNYNQKFQGRVTMTVDTSTRTAYMELSSLRSEDTAVYYCANFVYWGQGTTVTVSS
VL: DIVMTQTPLSLSVTPGQPASISCKSSKSLLYKDGKTYLNWFLQKPGQSPQLLIYVVSTRASGVPDRFSGSGSGTDFTLKISRVEAEDVGVYYCQQLVEYPYTFGQGTKLEIKR
modifications: N-terminal Q1 observed as pyroglutamic acid (PCA) in the 138-2-5 complex
notes: In the crystal structures heavy chain residues 1-213 were traced; also called Fab4320
Mean %WT Binding [1]: 13 %WT
Mean %WT Binding [2]: 18.2 %WT
